Assay results taken from patent US20110044996A1 (published 2011).

Legend:
[1] = biological target: T1, recombinant human GM-CSF (Peprotech) (human, UniProt P04141 18-144); test: SPR (BIAcore); recombinant human GM-CSF coupled to CM5 chip, antibody injected at 66.7-4.17 nM
Experimental: A second experiment was performed to determine the kinetics with which these antibodies bind to human GM-CSF. A range of antibody concentration was prepared in HBS-EP from 66.7 nM to 4.17 nM with 2-fold serial dilution. Again direct binding was quantitated using recombinant GM-CSF coupled to a CM5 chip—an uncoated flow cell was used as a reference. The antibody at each concentration was injected for 2 minutes with a stabilisation time of 10 minutes and dissociation time of 15 minutes. The BIACore kinetic analysis wizard was run to determine each antibody's association (ka [1/Ms]), dissociation (kd[1/s]) and affinity (KD [nM]) to GM-CSF.

[2] = biological target: T1, recombinant human GM-CSF (Peprotech); test: SPR (BIAcore); recombinant human GM-CSF coated on CM5 chip, antibody injected at 66.7-4.17 nM
Experimental: The binding kinetics of the 4K21 monoclonal antibody was determined using a Biacore and compared with the binding kinetics for a commercially available rat anti-human GM-CSF antibody from BD Biosciences (BD; Cat No. 554501) (see Table 1 below). Recombinant human GM-CSF was coated onto a CM5 chip to determine the binding kinetics of the 4K21 antibody. An uncoated flow cell was used as a reference. The antibody, prepared in HBS-EP at concentrations of 66.7 nM to 4.17 nM with 2-fold serial dilution, was injected for 2 minutes with a stabilisation time of 10 minutes and dissociation time of 15 minutes. The BIACore kinetic analysis wizard was run to determine each antibody's association (ka [1/Ms]), dissociation (kd[1/s]) and affinity (KD [nM]) to GM-CSF.

[3] = biological target: T1, recombinant human GM-CSF (Peprotech); test: cell-based or functional assay
[4] = biological target: T1, recombinant human GM-CSF (Peprotech); test: BIAcore, recombinant human GM-CSF amine-coupled to a CM5 chip, antibody at 1 ug/ml injected for 3 min
Experimental: The binding affinity of the humanized antibodies was determined by BIACore analysis. Recombinant GM-CSF (Peprotech) at 100 μg/ml was prepared in sodium acetate, pH5, and immobilised to a CM5 sensor chip by amine coupling. Approximately 1200RU bound to the chip. The first experiment was to determine the binding activity of 15 humanized antibodies. These antibodies were prepared in HBS-EP at 1 μg/ml, injected for 3 minutes and compared to murine 4K21 and a commercially available anti GM-CSF antibody (BD).

T1 sequence (P04141 18-144 limits assumed): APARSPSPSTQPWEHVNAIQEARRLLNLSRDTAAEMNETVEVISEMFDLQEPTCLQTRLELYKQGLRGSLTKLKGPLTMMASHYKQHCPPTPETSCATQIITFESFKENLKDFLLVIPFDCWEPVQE

Molecule	Ka [1] [M⁻¹]	Kd [1] [nM]	koff [1] [s⁻¹]	kon [1] [M⁻¹ s⁻¹]	EC50, TF-1 cell growth (3H-thymidine) with GM-CSF [3] [nM]	also measured
commercially available rat anti-human GM-CSF antibody from BD Biosciences (Cat No. 554501)	> 5.2e+09	< 0.19	< 1e-05	52000		Ka [2]: > 5.2e+09 M⁻¹; Kd [2]: < 0.19 nM; koff [2]: < 1e-05 s⁻¹; kon [2]: 52000 M⁻¹ s⁻¹
murine monoclonal antibody 4K21-O11-E14 (antibody, V domains shown, Murine hybridoma antibody (ECACC 07051601); also called 4K21-O11-E14 (mouse); mAb 4K21) VH: EVQLVESGGGLVKSGGSLKLSCAASGFAFSAYDMSWVRQTPEKRLELVAYISSGGSSFYYPDTVKGRFTISRDNAKNTLYLQMSSLKSEDTAMYYCTRHLGFDYWGQGTTLTVSS VL: DVVMTQTPLSLPVSLGDQASISCRSSQSLVNSNGNTYLHWFLQKPGQSPKLLIYKVSNRFSGVPDRFSGSGSGTDFTLKISRVEAEDLGVYFCSQSTHVPPTFGGGTKLEIK	> 5.9e+09	< 0.17	< 1e-05	59000	0.311	Ka [2]: > 5.9e+09 M⁻¹; Kd [2]: < 0.17 nM; koff [2]: < 1e-05 s⁻¹; kon [2]: 59000 M⁻¹ s⁻¹
hGM4/14 (antibody, V domains shown, also called h4K21-14; humanised 4K21-14) VH: EVQLVESGGGLVQPGGFLRLSCAASGFAFSAYDMSWVRQAPGKGLVWVSYISSGGSSFYYPDTVKGRFTISRDNAKNTLYLQMNSLRAEDTAMYYCTFHLGFDYWGQGTTVTVSS VL: DVVMTQSPLSLPVTPGEPASISCRSSQSLVNSNGNTYLHWYLQKPGQSPQLLIYKVSNRFSGVPDRFSGSGSGTDFTLKISRVEAEDVGVYYCSQSTHVPPTFGGGTKVEIK						binding result [4]: no binding (tested: 1 ug/ml)
hGM4/11 (antibody, V domains shown) VH: QVQLQESGGGLVKPGGSLKLSCAASGFAFSAYDMSWVRQTPDKRLEWVAYISSGGSSFYYPDTVKGRFTISRDNAKNTLYLQMSSLKSEDTAMYYCARHLGFDYWGQGTMVTVSS VL: DVVMTQSPLSLPVTPGEPASISCRSSQSLVNSNGNTYLHWYLQKPGQSPQLLIYKVSNRFSGVPDRFSGSGSGTDFTLKISRVEAEDVGVYYCSQSTHVPPTFGGGTKVEIK					5.13	
hGM4/15 (antibody, V domains shown, Heavy h4/50 with human gamma 1 constant (hG1), light h4c with human kappa constant (hKa); also called h4K21-15) VH: EVQLVESGGGLVKSGGSLTLSCAASGFAFSAYDMSWIRQAPGKGLEWVSYISSGGSSFYYPDTVKGRFTISRDNAKNSLYLQMNSLKDEDTAVYYCARHLGFDYWGQGTLVTVSS VL: DVVMTQSPLSLPVTPGEPASISCRSSQSLVNSNGNTYLHWYLQKPGQSPQLLIYKVSNRFSGVPDRFSGSGSGTDFTLKISRVEAEDVGVYYCSQSTHVPPTFGGGTKVEIK						binding result [4]: binds
hGM4/1 (antibody, V domains shown, Heavy h4/10 with human gamma 1 constant (hG1), light h4a with human kappa constant (hKa); also called h4K21-1; 4K21-1) VH: QVQLQESGGGLVKPGGSLKLSCAASGFAFSAYDMSWVRQTPDKRLEWVAYISSGGSSFYYPDTVKGRFTISRDNAKNTLYLQMSSLKSEDTAMYYCARHLGFDYWGQGTMVTVSS VL: DVVMTQSPLSLPVTLGQPASISCRSSQSLVNSNGNTYLHWFQQRPGQSPRRLIYKVSNRFSGVPDRFSGSGSGTDFTLKISRVEAEDVGVYYCSQSTHVPPTFGGGTKVEIK	7.7e+09	0.13	3.8e-05	290000		
hGM4/21 (antibody, V domains shown) VH: QVQLQESGGGLVKPGGSLKLSCAASGFAFSAYDMSWVRQTPDKRLELVAYISSGGSSFYYPDTVKGRFTISRDNAKNTLYLQMSSLKSEDTAMYYCARHLGFDYWGQGTMVTVSS VL: DVVMTQSPLSLPVTPGEPASISCRSSQSLVNSNGNTYLHWYLQKPGQSPQLLIYKVSNRFSGVPDRFSGSGSGTDFTLKISRVEAEDVGVYYCSQSTHVPPTFGGGTKVEIK					1.19	
hGM4/6 (antibody, V domains shown, Heavy h4/10 with human gamma 1 constant (hG1), light h4b with human kappa constant (hKa); also called h4K21-6) VH: QVQLQESGGGLVKPGGSLKLSCAASGFAFSAYDMSWVRQTPDKRLEWVAYISSGGSSFYYPDTVKGRFTISRDNAKNTLYLQMSSLKSEDTAMYYCARHLGFDYWGQGTMVTVSS VL: DVVMTQSPLSLPVTLGQPASISCRSSQSLVNSNGNTYLHWFQQRPGQSPRRLIYKVSNRFSGVPDRFSGSGSGTDFTLKISRVEAEDVGVYYCSQSTHVPPTFGQGTKLEIK	1.2e+10	0.081	1.6e-05	200000		
hGM4/34 (antibody, V domains shown) VH: QVQLQESGGGLVKPGGSLKLSCAASGFAFSAYDMSWVRQTPDKRLELVAYISSGGSSFYYPDTVKGRFTISRDNAKNTLYLQMSSLKSEDTAMYYCTRHLGFDYWGQGTMVTVSS VL: DVVMTQSPLSLPVTPGEPASISCRSSQSLVNSNGNTYLHWYLQKPGQSPQLLIYKVSNRFSGVPDRFSGSGSGTDFTLKISRVEAEDVGVYYCSQSTHVPPTFGGGTKVEIK					0.22	
hGM4/22 (antibody, V domains shown) VH: QVQLQESGGGLVKPGGSLKLSCAASGFAFSAYDMSWVRQTPDKRLEWVAYISSGGSSFYYPDTVKGRFTISRDNAKNTLYLQMSSLKSEDTAMYYCTRHLGFDYWGQGTMVTVSS VL: DVVMTQSPLSLPVTPGEPASISCRSSQSLVNSNGNTYLHWYLQKPGQSPQLLIYKVSNRFSGVPDRFSGSGSGTDFTLKISRVEAEDVGVYYCSQSTHVPPTFGGGTKVEIK					2.12	
hGM4/2 (antibody, V domains shown, Heavy h4/20 with human gamma 1 constant (hG1), light h4a with human kappa constant (hKa); also called h4K21-2) VH: EVQLVESGGGLVQPGGSLRLSCAASGFAFSAYDMSWVRQAPGKGLEWVSYISSGGSSFYYPDTVKGRFTISRDNAKNSLYLQMNSLRAEDTAVYYCARHLGFDYWGQGTLVTVSS VL: DVVMTQSPLSLPVTLGQPASISCRSSQSLVNSNGNTYLHWFQQRPGQSPRRLIYKVSNRFSGVPDRFSGSGSGTDFTLKISRVEAEDVGVYYCSQSTHVPPTFGGGTKVEIK	3.5e+09	0.29	4.7e-05	160000		
hGM4/13 (antibody, V domains shown, Heavy h4/30 with human gamma 1 constant (hG1), light h4c with human kappa constant (hKa); also called h4K21-13) VH: EVQLVESGGGLVQPGGSLRLSCSASGFAFSAYDMSWVRQAPGKGLEWVAYISSGGSSFYYPDTVKGRFTISRDNAKNSLFLQMSSLRAEDTAVYYCARHLGFDYWGQGTTVTVSS VL: DVVMTQSPLSLPVTPGEPASISCRSSQSLVNSNGNTYLHWYLQKPGQSPQLLIYKVSNRFSGVPDRFSGSGSGTDFTLKISRVEAEDVGVYYCSQSTHVPPTFGGGTKVEIK						binding result [4]: binds
hGM4/12 (antibody, V domains shown, Heavy h4/20 with human gamma 1 constant (hG1), light h4c with human kappa constant (hKa); also called h4K21-12) VH: EVQLVESGGGLVQPGGSLRLSCAASGFAFSAYDMSWVRQAPGKGLEWVSYISSGGSSFYYPDTVKGRFTISRDNAKNSLYLQMNSLRAEDTAVYYCARHLGFDYWGQGTLVTVSS VL: DVVMTQSPLSLPVTPGEPASISCRSSQSLVNSNGNTYLHWYLQKPGQSPQLLIYKVSNRFSGVPDRFSGSGSGTDFTLKISRVEAEDVGVYYCSQSTHVPPTFGGGTKVEIK						binding result [4]: binds
hGM4/5 (antibody, V domains shown, Heavy h4/50 with human gamma 1 constant (hG1), light h4a with human kappa constant (hKa); also called h4K21-5) VH: EVQLVESGGGLVKSGGSLTLSCAASGFAFSAYDMSWIRQAPGKGLEWVSYISSGGSSFYYPDTVKGRFTISRDNAKNSLYLQMNSLKDEDTAVYYCARHLGFDYWGQGTLVTVSS VL: DVVMTQSPLSLPVTLGQPASISCRSSQSLVNSNGNTYLHWFQQRPGQSPRRLIYKVSNRFSGVPDRFSGSGSGTDFTLKISRVEAEDVGVYYCSQSTHVPPTFGGGTKVEIK	7.6e+09	0.13	1.9e-05	140000		
hGM4/3 (antibody, V domains shown, Heavy h4/30 with human gamma 1 constant (hG1), light h4a with human kappa constant (hKa); also called h4K21-3; 4K21-3) VH: EVQLVESGGGLVQPGGSLRLSCSASGFAFSAYDMSWVRQAPGKGLEWVAYISSGGSSFYYPDTVKGRFTISRDNAKNSLFLQMSSLRAEDTAVYYCARHLGFDYWGQGTTVTVSS VL: DVVMTQSPLSLPVTLGQPASISCRSSQSLVNSNGNTYLHWFQQRPGQSPRRLIYKVSNRFSGVPDRFSGSGSGTDFTLKISRVEAEDVGVYYCSQSTHVPPTFGGGTKVEIK	7.1e+09	0.14	3e-05	210000		
